Reference: patent publication US20260069689A1 (Regeneron, published 2026)

Assays:
[1] = target: SARS-COV-2 RBD extracellular domain expressed with a C-terminal myc-myc-hexahistidine tag (SARS-CoV-2); assay: SPR (Biacore), mAb captured by anti-human Fc, RBD-mmH in solution, 25 C
[2] = target: human FcγR3a 176Val allotype receptor (human, UniProt P08637 17-254); assay: cell-based or functional assay

Binder | Kd [1] [nM] | koff [1] [s⁻¹] | kon [1] [M⁻¹ s⁻¹] | t½ [1] [min] | EC50 (M), Jurkat/CD20/spike [2] [M] | Fold induction, Jurkat CD20 [2] [fold] | Fold induction, Jurkat/CD20/spike [2] [fold]
mAb14289 (antibody, V domains shown) VH: QVQLVQSGPEVKKPGASVKVSCKASGYTFTSYAISWVRQAPGQGLEWMGWISAYNGNTNYAQKLQGRVTMTTDTFTSTAYMELRSLRSDDTAVYYCAVPADHITFDYWGQGTLVTVSS VL: EIVLTQSPGTLSLSPGERATLSCRASQSVSSYLAWYQQKPGQAPRLLIHGASSRATGIPDRFSGSGSGTDFTLTISRLEPEDFAVYYCQQYGSSFLTFGGGTKVEIKR | 1.36 | 0.00158 | 1.16e+06 | 7.3 | – | – | –
mAb14255 (antibody, V domains shown) VH: QVQLQESGPGLVKPSETLSLTCTVSGGSISGYYWSWIRQPPGKGLDWIGYIYYRGNTNYNPSLKSRVTISVDTSNNQFSLKLSSVTAADTAVYYCARYGEGYGDASGYHFDYWGQGTLVTVSS VL: QSALTQPASVSGSPGQSITISCTGTSSDVGSYNLVSWYQQHPGKAPKLMIYEDSKRPSGVANPFSGSKSGNTASLTISGLQAEDEADYYCSSYAGSSTWVFGGGTKLTVLG | 2.84 | 0.00499 | 1.75e+06 | 2.3 | – | – | –
mAb15151 (antibody, V domains shown) VH: QVQLVESGGGVVQPGRSLRLSCAASGFVFNSYGMHWVRQAPGKGLEWVAVLWYEGSKNYYADSVKGRFTISRDNSKNTLYLQMNSLRAEDTAVYYCARHGSGSFFGYYLDYWGQGTLVTVSS VL: DIQMTQSPSSLSASVGDRVTITCRASHNINDFLNWYQQKPGKAPRLLIYAASSLQSGVPSRFSGSGSGTDFTLTISSLQPEDFATYYCQESYTTPPTFGQGTKLEIKR | 3.89 | 0.000778 | 200000 | 14.8 | – | – | –
mAb14247 (antibody, V domains shown) VH: QITLKESGPTLVKPTQTLTLTCTFSGFSLSTSAVGVGWIRQPPGKALEWLALIYWDDDKRYSPSLKSRLTITKDTSKNQLVLTMTNVDPVDTATYYCAHHTIQLIFDYWGQGTLVTVSS VL: QSALTQPASVSGSPGQSITISCTATSSDVGNYNYVSWYQQHPGKAPKLMIYEVSNRPSGVSNRFSGSKSGNTASLTISGLQAEDEADYYCSSYTSSSTPLVFGGGTKLTVLG | 1.94 | 0.00163 | 838000 | 7.1 | – | – | –
mAb14233 (antibody) heavy: not shown light: SYELTQPPSVSVSPGQTARITCSGDVLAKLYAYWYQHKPGQAPVLVIYKDSERPSGIPERFSGSSSGTTVTLTISGVQAEDEADYYCQSADSSGSLWVFGGGTKLTVLGQPKAAPSVTLFPPSSEELQANKATLVCLISDFYPGAVTVAWKADSSPVKAGVETTTPSKQSNNKYAASSYLSLTPEQWKSHRSYSCQVTHEGSTVEKTVAPTECS | – | – | – | – | 2.8e-10 | 1.1 | 11
mAb14313 (antibody, V domains shown) VH: EVQLVESGGGLVQPGRSLRLSCVASGFTFDDSAMHWVRQPPGKGLEWVSGISWNSGIIGYAESVKGRFIISRDNAKNSLFLHMRGLRPEDTAVYYCARDRLELSYYYYGMDVWGQGTTVTVSS VL: not shown | 1.53 | 0.00217 | 1.42e+06 | 5.3 | – | – | –
mAb13458 (antibody, V domains shown) VH: EVQLVESGGGLVQPGRSLRLSCAASGFTFDDYAMHWVRQAPGKGLEWVSGISWNSGSIGYADSVKGRFTISRDNAKNSLYLQMNSLRAEDTALYYCAKDIGITTPYWGQGTLVTVSS VL: AIQMTQSPSSLSASVGDRVTITCRASQDIRNDLGWYQQKPGKAPKLLIYSASSLQTGVPSRFSGSGSGTDFTLTISSLHPEDFATYYCLQDYWYTWTFGQGTKVEIKR | 1.53 | 0.00139 | 909000 | 8.3 | – | – | –
mAb13459 (antibody, V domains shown) VH: EVQLVESGGGLVQPGRSLRLSCAASGFTFDDYAMHWVRQAPGKGLEWVSGISWNSGSIGYADSVKGRFTISRDNAKNSLYLQMNSLRAEDTALYYCAKDIGITTPYWGQGTLVTVSS VL: AIQMTQSPSSLSASVGDRVTITCRASQDIRNDLGWYQQKPGKAPKLLIYSASSLQTGVPSRFSGSGSGTDFTLTISSLHPEDFATYYCLQDYNYVWTFGQGTKVEIKR | 2.51 | 0.00174 | 693000 | 6.6 | – | – | –
mAb14283 (antibody, V domains shown) VH: QVQLQESGPGLVKPSGTLSLTCDVSGGSISSNNWWSWVRQRPGKGLQWIGEIYHNENTNYNPSLKSRVIMSIDKSKNQFSLKLTSVTAADTAVYYCARGDVLDWFDPWGQGTLVTVSS VL: QSALTQPASVSGSPGQSTTISCTGTSSDVGGYNYVSWYQQYPGKAPKLMIYDVTNRPSGVSHRFSGSKSGNTASLTISGLQAEDEADYYCSSYTSSSTVIFGGGTKLTVLG | 1.08 | 0.00158 | 1.46e+06 | 7.3 | – | – | –
mAb14284 (antibody, V domains shown) VH: QITLKESGPTLVKPTQTLTLTCTFSGFSFSTSGVGVGWIRQPPGKTLEWLALIYWDDDKRYSPSLKSRLTITKDTSKNQVVLTMTNMDPVDTATYFCAHHGIPTIFGYWGQGALVTVSS VL: QSALTQPASVSGSPGQSITISCTGTSSDLGVFNYVSWYQQHPGKAPKLMIYEVTNRPSGVSNRFSGSKSGNTASLTISGLQAEDEADYYCSSYTTSSTVFGGGTKLTVLG | 0.824 | 0.000549 | 666000 | 21 | – | – | –
mAb14235 (antibody, V domains shown) VH: QITLKESGPTLVKPTQTLTLTCTFSGFSLNTGGVGVGWIRQPPGNALEWLALIYWDDDKRYNPSLKTRLTISKDTSKNQVVLTMTNMDPVDTATYFCAHLTIAVIVDFWGQGTLVTVSS VL: QSALTQPASVSGSPGQSITISCTATSSDVGTYNYVSWFQHHPGKAPKLMIYEVTNRPSGVSNRFSGSKSGNTASLTISGLQAEDEADYYCSSYTTTSIVFGGGTKLTVLG | 1.33 | 0.00105 | 789000 | 11 | – | – | –
mAb14258 (antibody, V domains shown) VH: QLQLQESGPGLVKPSETLSLICTGSGDSISSSHYYWGWIRQPPGKGLEWIGSTYFSGSTYYNPSLKSRVSISVDTSKNQVSLKLISVTAADTAVYYCAREMGATLGDYWGPGTLVTVSS VL: QSVLTQPPSASGTPGQRVTISCSGSSSNIGNNYVYWYQQFPGTTPRLLIYRNNERPSGVPDRFSGSKSGTSASLVISGLRSEDEADYYCAAWDDSLSAHYVFGTGTKVTVLG | 0.854 | 0.00161 | 1.89e+06 | 7.2 | – | – | –
mAb14257 (antibody, V domains shown) VH: EVQLVESGGGLVQPGGSLRLSCAASGFTVSRSYMNWVRQAPGKGLEWVSVVFTGGTTKHTDSVKGRFTISRDNSMNTLYLQMNSLRPEDTAVYYCARVAIVETTGAFDIWGQGTMVTVSS VL: QSVLTQPPSVSGAPGQRVTISCTGTSSNIGADFDVHWYQQFPGTAPKLLIYGHTNRPSGIPDRFSGSKSGTSASLAITGLQAEDEADYYCQSYDSSLSGSVVFGGGTKLTVLG | 2.8 | 0.00952 | 3.4e+06 | 1.2 | – | – | –
mAb14294 (antibody, V domains shown) VH: EVQLVESGGGLVQPGGSLRLSCAASGFTFSNHWMDWVRQAPGKGLVWVSRINSDGSSTDYADSVRGRFTMSRDNAKNTLYLQMSSLRAEDTAVYYCAREGMIFGAVIIPGWYFDLWGRGALVTVSS VL: EIVLTQSPGTLSLSPGERATLSCRASQSVSSSQLAWYQQKPGQAPRLLIYGASSRATGIPDRFSGSGSGTDFTLTISRLEPEDFAVYYCQQYDSFGQGTKLEIKR | 0.914 | 0.000548 | 600000 | 21.1 | – | – | –
mAb15150 (antibody, V domains shown) VH: EVQLVETGGGLIQPGGSLRLSCAAPGFIVSSNYMSWVRQAPGKGLEWVSLLYPGGSTYYADSVKGRFTISRDNSKNTLYLQMNSLRADDTAVYYCARVLPIVEDHFDYWGQGTLVTVSS VL: DIQLTQSPSFLSASVGDRVTITCRASQGMSSYLAWYQKKPGKAPKLLIYGATILQSGVPSRFSGSGSGTEFTLTISSLQPEDFATYYCQQLNSDPLYMYTFGQGTKLEIKR | 0.0594 | 4.61e-05 | 774000 | 251 | – | – | –
mAb14287 (antibody) heavy: not shown light: QSALTQPASVSGSPGQSITISCTGTSSDVGSYNLVSWYQQHPGKAPKLMIYEVSKRPSGVSNRFSGSKSGNTASLTISGLQAEDEADYYCSSYAGSRREVFGGGTKLTVLGQPKAAPSVTLFPPSSEELQANKATLVCLISDFYPGAVTVAWKADSSPVKAGVETTTPSKQSNNKYAASSYLSLTPEQWKSHRSYSCQVTHEGSTVEKTVAPTECS | – | – | – | – | 1.23e-09 | 1 | 6.2
mAb14315 (antibody, V domains shown) VH: QVQLVQSGAEVKKPGSSVKVSCKASGDTFSTYAINWVRQAPGQGLEWMGRFIHIFGTANYAQKFQGRVTITADESTSTAYMELRSLRSEDTAVYYCARDGVDYGDYRPDYWGQGTLVTVSS VL: EIVLTQSPGTLSLSPGERATLSCRASQSVSSNYLAWYQQKPGQAPRLLIYGASSRATGIPERFSGSGSGTDFTLTISRLEPEDFAVYYCQQYGSSLYTFGQGTKLEIKR | 2.49 | 0.00102 | 407000 | 11.4 | – | – | –
mAb14259 (antibody) heavy: not shown light: DIVMTQSPLSLPVTPGEPASISCRSSQTLLHSNGYNYLDWYLQKPGQSPQLLIHLGSNRASGVPDRFSGSGSVTDFTLKISRVEAEDVGVYYCMQALQTPYTFGQGTKLEIKRTVAAPSVFIFPPSDEQLKSGTASVVCLLNNFYPREAKVQWKVDNALQSGNSQESVTEQDSKDSTYSLSSTLTLSKADYEKHKVYACEVTHQGLSSPVTKSFNRGEC | – | – | – | – | 3.94e-10 | 1 | 8.7
mAb15170 (antibody, V domains shown) VH: EVQLVESGGGLVQPGGSLRLSCAATGITVSSNYMSWVRQAPGKGLEWVSLIYSGGSTFYADSVKGRFTISRHNSKNTLYLQMSSLRAEDTAVYYCARDLVDFGMDVWGQGTTVTVSS VL: DIQLTQSPSSLSASVGDRVTITCRASQGISNYLAWYQQKPGKAPKLLIYAASTLQSGVPSRFSGSGSGTDFTLTISSLQPEDFGTYYCQQLNSDSPTFGQGTKVEIKR | 0.1 | 1.53e-05 | 200000 | 756 | – | – | –
